Assay results: doi:10.1101/722512 (bioRxiv, 2019)

Target: the molecule itself
Test: native MS

B1: Erwinia ligand-gated ion channel (ELIC), wild type (natural protein)
chain: APADNAADARPVDVSVSIFINKIYGVNTLEQTYKVDGYIVAQWTGKPRKTPGDKPLIVENTQIERWINNGLWVPALEFINVVGSPDTGNKRLMLFPDGRVIYNARFLGSFSNDMDFRLFPFDRQQFVLELEPFSYNNQQLRFSDIQVYTENIDNEEIDEWWIRKASTHISDIRYDHLSSVQPNQNEFSRITVRIDAVRNPSYYLWSFILPLGLIIAASWSVFWLESFSERLQTSFTLMLTVVAYAFYTSNILPRLPYTTVIDQMIIAGYGSIFAAILLIIFAHHRQAMGVEDDLLIQRCRLAFPLGFLAIGCVLVIRGITL
stoichiometry N: 5
